Compound in this series: N=C(N)c1ccc(-c2cc3ccc(C(=N)N)cc3[nH]2)cc1
Kind of series: Inhibition of Escherichia coli FtsZ assessed as reduction in substrate KM value.

B1: Cell division protein FtsZ (Escherichia coli K-12), P0A9A6 (protein)
chain: MFEPMELTNDAVIKVIGVGGGGGNAVEHMVRERIEGVEFFAVNTDAQALRKTAVGQTIQIGSGITKGLGAGANPEVGRNAADEDRDALRAALEGADMVFIAAGMGGGTGTGAAPVVAEVAKDLGILTVAVVTKPFNFEGKKRMAFAEQGITELSKHVDSLITIPNDKLLKVLGRGISLLDAFGAANDVLKGAVQGIAELITRPGLMNVDFADVRTVMSEMGYAMMGSGVASGEDRAEEAAEMAISSPLLEDIDLSGARGVLVNITAGFDLRLDEFETVGNTIRAFASDNATVVIGTSLDPDMNDELRVTVVATGIGMDKRPEITLVTNKQVQQPVMDRYQQHGMAPLTQEQKPVAKVVNDNAPQTAKEPDYLDIPAFLRKQAD
By Km is commonly meant the substrate concentration at which the rate is half of its maximum. With B1, the Michaelis-Menten constant (Km) is 29.4 µM.

The values above are taken from ChEMBL document CHEMBL3414448, “Advances in the discovery of novel antimicrobials targeting the assembly of bacterial cell division protein FtsZ” (Eur J Med Chem, 2015).
